Target: TgPKS2 thioester reductase domain (TgTR) (Toxoplasma gondii)
Assay: ITC

For holo-TgACP4 (domain or fragment), which Kd is on record?
The Kd was 5.75 µM.

— doi:10.1101/2023.05.23.541938
